Results: paper PMC3792889

Target: Growth factor receptor protein binding protein 2 (Grb2), endogenous (mouse (endogenous in STHdhQ7/7, STHdhQ111/111 and Neuro2A cells)) (UniProt Q60631)
Test: co-IP; extracts of Neuro2A cells transfected with 23Q or 145Q Httex1 GFP; precipitated with anti-Grb2 antibody and Protein A/G beads; blot with anti-GFP; densitometry, n=3

UniProt Q60631, sequence (Q60631 whole entry): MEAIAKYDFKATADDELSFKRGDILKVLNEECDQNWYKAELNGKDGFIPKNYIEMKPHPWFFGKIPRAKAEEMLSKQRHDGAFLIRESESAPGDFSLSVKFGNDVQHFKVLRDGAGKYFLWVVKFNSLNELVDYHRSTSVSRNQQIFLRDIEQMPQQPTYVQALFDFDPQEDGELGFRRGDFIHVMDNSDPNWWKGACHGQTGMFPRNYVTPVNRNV

fold precipitation against 23Q Httex1 GFP: 2 fold
Substance: 145Q Htt exon1 GFP (domain or fragment)
